Data taken from patent publication US20240218057A1 (ROCKEFELLER UNIVERSITY, published 2024).
Positions count from the first letter of the chain named.

B1: C1014 (antibody, V domains shown)
VH: QVQLQESGPGLVRPSQTLSLTCTVSGGSIGSGAYWSWIRQHPAKGLEWIGYVYYSGSTFYNPSLETRVSISVDISKDQFSLELTSVTVADTAVYYCAREKIEVVSIEMRPHYYGIDVWGQGTTVTVSS
VL: EIVMTQSPATLSVSPGERATLSCRASQSISSNLAWYQQKPGQPPRLLIYGASTRATGIPARFSGSGSGTEFTLTISSLQSEDIAVYYCQHYNNWPPWTFGQGTKVDIK
B2: C1023 (antibody, V domains shown)
VH: QVQLVQSGAEMKKPGASVKISCKASGDTFTTNYFHWVRQAPGQGLEWMGIINPSAGSTTYAQRFQGRVTMTGDSSTNTVYLELRSLRSEDTAMYFCAKGSYIPAMRSSFDPWGQGTLVTVSS
VL: EIVLTQSPGTLSLSPGERATLSCRASQSVSHRYLAWYQQKPGQAPRLLIDGASNRATGIPDRFSGSGSGTDFTLTISRLEPEDFGVYYCQQYGSSPPFTFGQGTKLEIK
B3: C1000 (antibody, V domains shown)
VH: QVQLQESGPGLVKPSQTLSLSCTVSGGSISSDDYYWSWIRQPPGKGLEWIGYIYYSGSTYYNSSLKSRVSISVDTSKNQFSLKLSSVTAADTAVYYCARWKRWLQFLYFDYWGQGTLVTVSS
VL: QSALTQPRSVSGSPGQSVTISCTGTSSDVGGYSFVSWYQQHPGKAPKVLIYDVDKRPSGVPDRLSGSKSGNTASLTISGLQAEDEADYYCCSYAGSYTLIFGGGTKLTVL
B4: C1002 (antibody, V domains shown)
VH: EVQLVESGGGLVQPGGSLRLSCAASEFIVSSNYMTWVRQAPGKGLEWVSIMYPGGSTFYADSVKGRFTISRDNSKNTLYLQINRLRAEDTAVYYCARDIAGRLDYWGQGTLVTVSS
VL: DIQMTQSPSSLSASVGDRVTITCQASQDINNYLNWYQQKPGKAPKLLIYDASNLETGVPSRFSGSGSGTDFSFTISSLQPEDIATYYCQQYDNLSRLTFGGGTKVEIK
B5: C1010 (antibody, V domains shown)
VH: QVQLVESGGGVVQPGRSLRLSCAASGFTFSSYAMHWVRQAPGKGLEWVAVISYDGSNKYYADSVKGRFTISRDNSKNTLYLQMNSLRAEDTAVYYCAKKGQPYCGGDCYFYYFDYWGQGTLVTVSS
VL: B4 VL with V15L, N30S, S72T, S95P, R96P, L97I, G101Q, K104R, V105L
B6: C1011 (antibody, V domains shown)
VH: QVQLVESGGGVVQPGRSLRLSCAVSGFTFSHYAMHWVRQAPGKGLEWVAVISYDGADKYYADSVRGRFTIARDNSKNTLFLQMSSLRPEDTAVYYCAKKGQPYCGGDCHFYYLDYWGQGTLVTVSS
VL: B4 VL with N30S, Y32H, S72T, P80A, S95P, R96P, L97I, G101Q, K104R, V105L
B7: C1008 (antibody, V domains shown)
VH: EVQLVESGGGLIQPGGSLRLSCAASGFTVSSNYMSWVRQAPGKGLEWVSVIYSGGSTYYADSVKGRFTISRDNSKNTLYLQMNSLRAEDTAVYYCARVVGYDFWSGYDGGYFDYWGQGTLVTVSS
VL: QSALTQPASVSGSPGQSITISCTGTSSDVGSYNLVSWYQQHPGKAPKLMIYEVSKRPSGVSNRFSGSKSGNTASLTISGLQAEDEADYYCCSYAGSSTWVFGGGTKLTVL
B8: C1009 (antibody, V domains shown)
VH: EVQLVESGGGLLQPGGSLRLSCAASGFSVSSNYMTWVRQAPGKGLEWVAAIYSGDSTYYVDSVKGRFIISRDNSKNTVYLHLSSLRAEDTAVYYCARLVGYDFRSGSDGGYFDYWGHGTLVTVSS
VL: B7 VL with V29I, S31N, E52D, A86T
B9: C1020 (antibody, V domains shown)
VH: QVQLVQSGAEVKKPGASVKISCKASGYSFSNYYIHWVRQAPGQGLEWMGIINPSGNSISYAQKFQGRVTMTGDTSTSTVYMELSSLRSEDTAVYYCARSVFPVPAAGGCDYWGQGTLVTVSS
VL: DIQMTQSPSSLSASVGDRVTITCRASQSITTSLNWYQQKPGKAPKLLIYSASTLESGVPSRFSGSGSGTDFTLTISSLQPEDFATYYCQQTYRAPPYTFGQGTKLEIK
B10: C1021 (antibody, V domains shown)
VH: QVQLVQSGAELKKPGASVKVSCKASGYTFSTYYIHWVRQAPGQGLEWMGIINPEAGSTSYAQKFQGRVTMTTDTSTSTVYMELISLRSQDTAIYYCARDAVGVPAINSLEYWGQGTLVTVSS
VL: EIVLTQSPATLSLSPGERATLSCRASQSISSYLAWYQQKPGQAPRLLIYDASNRATDISARFSGSGSGTDFTLTISSLEPEDFAVYYCQHRSNWPPSFTFGGGTKVEIK
B11: C1012 (antibody, V domains shown)
VH: QVQLVQSGAEVKKPGSSVKVSCKASGGTVNNYAINWVRQAPGQGLEWMGGIVPIFGTPNYAQKFQGRVTITADESTSTAYMELSSLRSEDTAVYYCAKVSLTLPIAAAPRFWFDSWGQGTLVTVSS
VL: EIVMTQSPATLSVSPGERATLSCRASQSVSSHLAWYQQKPGQAPRLLIYGASTRATGIPARFSGSGSGTEFTLTISSLQSEDFAVYYCQQYHNWPPALTFGGGTKVEIK
B12: C1013 (antibody, V domains shown)
VH: QVQLVQSGVEVKKPGSSVKVSCKASGGTFTDYAFSWVRQAPGQGLEWMGGIVPIFATPDYAEKFRGRVTITADESTSTAYMELSTLKSEDTAVYYCARASLTLPIRAAPRFWFDAWGQGTLVTVSS
VL: B11 VL with S28G, S31T, N93K
B13: C997 (antibody, V domains shown)
VH: EVQLLESGGGLVQPGGSLRLSCAASGFTFSKDAMSWVRQAPGKGLEWVSTVTGSGTNTYYADSVKGRFTISRDNSNNTLYLQMNSLRAEDTAVYYCANHPLGAAEGYYYYYMDVWGKGTTVTVSS
VL: EIVLTQSPGTLSLSPGERGTLSCRASQRVPSSQLAWYQQKSGQAPRLLIYGASSRASGIPDRFSGSGSGTDFTLNISRLEPEDFAVYYCQQYGSLRALTFGGGTKVEIK
B14: C1019 (antibody, V domains shown)
VH: QVQLVESGGGVVQPGTPLRLSCAASGFTFSSYAMHWVRQAPGKGLEWVAMISYDGGNKYYADSVKGRFTISRDNSKNTLFLQMNSLRGEDTAVYYCARSFSIRIGHKDNWGQGTLVTVSS
VL: NFMLTQPHSVSESPGKTVTISCTGSSGSIANNYVQWYQQRPGSAPTPVIYEDDQRPSGVPDRFSGSIDSSSNSASLSISGLKTEDEADYYCQSYDSTNFWVFGGGTKLTVL
B15: C998 (antibody, V domains shown)
VH: QVQLVQSGAEVKKPGASVKVSCKTSGYTFISYYIHWVRQAPGQGLEWMGIINPDGDNTNYAQKFQGRVTMTRDTSTSTVYMELSSLRFEDTAVYYCARGGAIPALRTAFDIWGQGTMVTVSS
VL: DIQMTQSPSTLSASVGDRVTITCRASQSISNWLAWYQQKPGKAPKLLIYKASSLESGVPSRFSGSGSGTEFTLTISSLQPDDFATYYCQEYNSYYFGQGTKLEIK
B16: C999 (antibody, V domains shown)
VH: QVQLVQSGAEVRRPGASVKVSCKASGYTLTHYYIHWVRQAPGQGLEWVGIINPDGDNTNYAQKFQGRVTMTRDTSTSTVYMELSSLRSEDTAIFYCARGGAIPALRSAFDIWGQGTMVTVSS
VL: B15 VL with S30N, S53T, E90Q, Y95F
B17: C1018 (antibody, V domains shown)
VH: QVQLVESGGGVVQPGRSLRLLCAASGFTFNTHGMHWVRQAPGKGLEWVAVIWFDGSNKYYADSVKGRFTISRDNSTNTLYLQMNSLRAEDTAVYYCARVYGGLPYYYAIDVWGQGTTVTVSS
VL: QSVLTQPPSVSGAPGQRVTISCAGSSSNIGAGYGVHWSQQLPGRPPKLLIYGDSNRPSGVPDRFSGSNSGTSASLAITGLQAEDEAVYYCQSYDRSLRAWVFGGGTKLSVL
B18: C1001 (antibody, V domains shown)
VH: QVQLQESGPGLVKPSQTLSLTCTVSGGSISSGDYYWTWIRQPPGKGLEWIGYIFYSGITYYSPSLKSRLTMSIDTSKSQFSLNLSSVTAADTAVYYCARWKRLLQSLHFDYWGQGILVTVSS
VL: QSALTQPRSVSGSPGQSVTISCTGTSSDVGSYDYVSWYQQHPGKAPKVMIYGVDERPSGVPHRFSGSKSGNTASLTISGLQADDEADYFCCFYAGSYTLLFGGGTKVTVL
B19: C1016 (antibody, V domains shown)
VH: QVQLQESGPGLVKPSGTLSLTCAVSGGPISSNHWWSWVRQPPGKGLEWIGEVYRNGNTNYHPSLKSRVTMSIDNSKNQFSLSLTSVTAADTAVYYCARGGDLAMGPEYLDFWGQGTLVTVSS
VL: QSALTQPASVSGSPGQSITISCTGTSSDVGANNYVSWYQQHPGKAPKLMIYDVINRPSGVSDRFSGSKSGNTASLTISGLQAEDEADYYCSSFSTSSTLLFGGGTKLTVL
B20: C1006 (antibody, V domains shown)
VH: QVQLVQSGAEVRKPGSSVKVSCKASGGPFDQYTFSWVRQAPGQGLEWMARITPVVDLTNYAQKFQGRITIITDKSTSTAYMELSSLRSEDTAIYYCATPLNDYYASGNLGLWGQGTLVTVSS
VL: DIQMTQSPSSLSASIGDRVTITCRASQGISYYLAWFQQKPGEAPRSLIYDASSLQSGVPSKFSGSGSGTDFTLTISSLQPEDSATYYCQQYNSYPLTFGGGTKVEIK
B21: C1007 (antibody, V domains shown)
VH: QVQLVQSGSEMKKPGSSVKVSCKAAGGTLNTHTFSWVRQAPGQGLEWMGRITPTVDLTNYAQKFQGRITITADTSTNTAYLELRRLRSEDTAIYYCATPLNDYYASGNLGLWGQGTLVTVSS
VL: B20 VL with R18T, Q38R, E42K, R45K, N92S, S93T
B22: C1003 (antibody, V domains shown)
VH: QVQLVESGGGVVQPGRSLRLSCAASGFAFSSYGMNWVRQAPGKGLEWVTTVSSDGNVNYYIDSVKGRFTISRDNSKNTLYLQMNSLRGDDTAVYYCAKGPRFGWSYRGGSGFDIWGQGTMVTVSS
VL: DIQMTQSPSSLSASVGDRVTITCQASQDISNYLNWYQQKPGKAPKLLIYDASNLETGVPSRFSGSGSGTDFTFTITSLQPEDIATYYCQQYDNLPITFGQGTRLEIK
B23: C1022 (antibody, V domains shown)
VH: QVQLVQSGAEVKTPGASVKVSCQASGDTFTSQYLHWVRQAPGQGLEWMGIINPTAGSTTYAQKFQGRVTMTRDTSTSTVYMELRSLRSEDMAVYYCARGGFIPMVRGFIDHWGQGTLVTVSS
VL: QSALTQPASVSGSPGQSITISCTGTSSDVGGYNYVSWYQQHPGKAPKLMIYDVSNRPSGVSTRFSGSKSGNTASLTISGLQAEDEADYYCSSPTSSNTHVFGTGTKVTVL

target: T1, SARS-COV-2 RBD (SARS-COV-2, UniProt P0DTC2 319-539); test: ELISA, RBD coated on plate
T1 construct: also called WT RBD

| Binder | EC50 [ng/mL] |
| --- | --- |
| B1 | 2.95 |
| B2 | 1.13 |
| B3 | 3.2 |
| B4 | 0.83 |
| B5 | 2.45 |
| B6 | 1.49 |
| B7 | 17.2 |
| B8 | 1.34 |
| B9 | 2.06 |
| B10 | 2.53 |
| B11 | 3.29 |
| B12 | 8.92 |
| B13 | 3.49 |
| B14 | 2.8 |
| B15 | 2.51 |
| B16 | 2.68 |
| B17 | 3.09 |
| B18 | 3.23 |
| B19 | 2.16 |
| B20 | 2.04 |
| B21 | 3.22 |
| B22 | 1.82 |
| B23 | 1.66 |
